Test in all cases: cell_activity
Data set [1] relates to ZF-off targeting TAR1649 (second row, 10.70%) (synthetic). The following applies: HLA-DR+ 10.70%; binding inferred from silencing.
Data set [2] has as its system ZF-off targeting TAR1607 (table row SEQ 1538) (synthetic). The following applies: HLA-DR+ 6.46%; binding inferred from silencing.
Data set [3] concerns ZF-off targeting TAR1616 (table row SEQ 1557) (synthetic). The following applies: HLA-DR+ 5.76%; binding inferred from silencing.
For data set [4], the system named is ZF-off targeting TAR1650 (table row SEQ 1549) (synthetic). The following applies: HLA-DR+ 13.65%; binding inferred from silencing.
The subject of data set [5] is ZF-off targeting TAR1654 (table row SEQ 1572) (synthetic). The following applies: HLA-DR+ in primary human T cells, 2.64%; binding inferred from silencing.
Data set [6] relates to ZF-off targeting TAR1615 (table row SEQ 1601) (synthetic). The following applies: HLA-DR+ 4.50%; binding inferred from silencing.
The subject of data set [7] is ZF-off targeting TAR1648 (third row, 4.51%) (synthetic). The following applies: HLA-DR+ 4.51%; binding inferred from silencing.
Data set [8] concerns ZF-off targeting TAR1604 (table row SEQ 1576) (synthetic). The following applies: HLA-DR+ 12.84%; binding inferred from silencing.
In data set [9] the test system is ZF-off targeting TAR186 (table row SEQ 1553) (synthetic). The following applies: HLA-DR+ 7.53%; binding inferred from silencing.
In data set [10] the test system is ZF-off targeting TAR1612 (table row SEQ 1599) (synthetic). The following applies: HLA-DR+ 12.50%; binding inferred from silencing.
The test system of data set [11] is ZF-off targeting TAR1608 (table row SEQ 1608) (synthetic). The following applies: HLA-DR+ 12.05%; binding inferred from silencing.
In data set [12] the test system is ZF-off targeting TAR1623 (table row SEQ 1605) (synthetic). The following applies: HLA-DR+ 10.56%; binding inferred from silencing.
Data set [13] concerns ZF-off targeting TAR1646 (table row SEQ 1547) (synthetic). The following applies: HLA-DR+ 3.88%; binding inferred from silencing.
Data set [14] has as its system ZF-off targeting TAR1655 (table row SEQ 1563) (synthetic). The following applies: HLA-DR+ 15.20%; binding inferred from silencing.

Experimental findings from US20260258376 are described below.

Turning to “ACAGAAAGTCTGTTGGGGG (double strand) [TAR1649]”, in [1], the activity (fraction of off-target control) turned out to be 0.31.

In data set [2], “AGGGCACGAGGAGGGGCTG (double strand) [TAR1607]” yielded an activity (fraction of off-target control) of 0.18.

“GAACAGATGGTGGGAAGAG (double strand) [TAR1616]” gave an activity (fraction of off-target control) in data set [3] of 0.16.

In [4], “GAATTTGGTGAAGACAGAA (double strand) [TAR1650]” displayed an activity (fraction of off-target control) of 0.39.

In the case of “GACAGGTAGGACCCAGCAG (double strand) [TAR1654]”, in data set [5], the activity (fraction of off-target control) was 0.08.

“GACGGGGGAACAGATGGTG (double strand) [TAR1615]” had an activity (fraction of off-target control) in data set [6] of 0.13.

For the sequence “GAGAGCCTCTGCTGGGGAC (double strand) [TAR1648]”, the activity (fraction of off-target control) in data set [7] was found to be 0.13.

“GAGGCATCTGGGCGGAGGG (double strand) [TAR1604]” yielded an activity (fraction of off-target control) in data set [8] of 0.37.

In the case of “GAGGCTGTGTGCTTCTGAG (double strand) [TAR186]”, the activity (fraction of off-target control) in [9] worked out at 0.22.

Regarding “GCAGCTGGGGAGAGCTGGC (double strand) [TAR1612]”, in [10], the activity (fraction of off-target control) stood at 0.36.

As to “GGAGCTGCTGCCTGGCTGG (double strand) [TAR1608]”, in [11], the activity (fraction of off-target control) came out at 0.34.

Take “GGAGGGGGAGAAGTCAGAG (double strand) [TAR1623]”: in data set [12], the activity (fraction of off-target control) was found to be 0.3.

In the case of “GTGGTATCAAGGAGGAAGT (double strand) [TAR1646]”, the activity (fraction of off-target control) in data set [13] was 0.11.

In [14], “TGGGTATGGAGTGGAGTCT (double strand) [TAR1655]” displayed an activity (fraction of off-target control) of 0.43.
